Laboratory results as given in patent US20110195083A1.

Tests used:
Assay in all cases: cell-based or functional assay
[1] = target: HIV-1 BX08 envelope protein (Env) on pseudovirus (HIV-1 strain BX08)
[2] = target: HIV-1 BaL envelope protein (Env) on pseudovirus (HIV-1 strain Bal)
[3] = target: HIV-1 6535 envelope protein (Env) on pseudovirus (HIV-1 strain 6535)

Q: Which results are given for CD4-mimic peptide CD4M33?
A: neutralization IC50, CD4M33 alone [1]: 0.173 µg/mL; neutralization IC50, CD4M33 concentration in combination with serum B714 [1]: 0.036 µg/mL; neutralization IC50, CD4M33 concentration in combination with serum B716 [1]: 0.036 µg/mL; neutralization IC50, CD4M33 concentration in combination with serum B718 [1]: 0.028 µg/mL; neutralization IC50, CD4M33 concentration in combination with serum B720 [1]: 0.014 µg/mL; neutralization IC50, CD4M33 alone [2]: > 0.25 µg/mL; neutralization IC50, CD4M33 concentration in combination with serum B714 [2]: 0.048 µg/mL; neutralization IC50, CD4M33 concentration in combination with serum B716 [2]: 0.057 µg/mL; neutralization IC50, CD4M33 concentration in combination with serum B718 [2]: 0.045 µg/mL; neutralization IC50, CD4M33 concentration in combination with serum B720 [2]: 0.017 µg/mL; neutralization IC50, CD4M33 alone [3]: 0.721 µg/mL; neutralization IC50, CD4M33 concentration in combination with serum B714 [3]: 0.431 µg/mL; neutralization IC50, CD4M33 concentration in combination with serum B716 [3]: 0.431 µg/mL; neutralization IC50, CD4M33 concentration in combination with serum B718 [3]: 0.481 µg/mL; neutralization IC50, CD4M33 concentration in combination with serum B720 [3]: 0.189 µg/mL
